Data published in patent publication US20090233993A1, “COMPOSITIONS AND METHODS FOR INHIBITING GSK3 ACTIVITY AND USES THEREOF” (Burnham Institute for Medical Research, priority 2008, published 2009).
“And” between values parts separate entries of the source, which are not always exact repeats. Identical values can stand only once. “Also recorded” adds a separate entry of the source.

Key:
cAMP levels = assay: cAMP assay in rat PC12 cells; assay type: cell-based; conditions: FG01 overexpression
Description: (§1) Commercial kits were used to assay in vitro activities of GSK-3β (Sigma) and PKA (Upstate). For GSK-3α activity, a commercial GSK-3β activity assay kit was used but the procedure to immunoprecititate GSK-3β was replaced with immunoprecipitation of GSK-3α using an anti-GSK-3α antibody (Cell Signaling). cAMP levels were assayed using a commercial kit (Biovision).

Aβ generation = Aβ generation / APP processing in N2aSwe cells overexpressing FG01 (IP-Western blot); assay type: cell-based, mouse
Description: To investigate FG01's effects on Aβ generation, the His6-tagged recombinant FG01 was overexpressed in N2aSwe cells. The levels of βCTF, APP, sAPPα and secreted and intracellular Aβ were then quantified in the transfected cells and compared to those parental cells.
The His6-tagged FG01 was overexpressed in N2aSwe cells. The secreted and intracellular Aβ were immunoprecipitated by 4G8. The precipitated peptides and sAPPα, βCTF, full length APP and FG01 were analyzed by Western blots. α-tubulin was used as loading control. The levels of the proteins were quantified by densitometry and normalized and compared to those in vector transfected control.
To corroborate this, FG01 was over expressed in N2aSwe cells.

tau = tau phosphorylation (Thr205, PHF-1) in N2aSwe cells cotransfected with human tau T40; assay type: cell-based
Description: Since GSK-3 can phosphorylate tau at multiple sites, it was determined whether FG01 can affect tau phosphorylation by GSK-3. The human longest tau splicing variant T40 was cotransfected with FG01 or expression vector (control) into N2aSwe cells, and the tau phosphorylation examined at Thr205 and PHF-1 tauepitope (Ser396 and Ser404), which are GSK-3 phosphorylation targets and major paired helical filament (PHF) tau sites found in NFTs. […] In addition, little change was found in CDK5 protein level and its in vitro activity upon FG01 overexpression.
The human tau T40 was co-transfected with either FG01 or the expression vector into N2aSwe cells. The phospho-tau at Thr205 and PHF-1 and total tau proteins in the transfected cells were detected by Western blots (left). The levels of phospho-tau at the examined sites were quantified by densitometry and normalized to the total levels (right).
GSK-3 is a major kinase that phosphorylates tau in AD (Flaherty et al., 2000). […] N2aSwe cells were cotransfected with the human tau splice variant T40 and with FG01 (or control vectors), and examined tau phosphorylation at the threonine 205 site (Thr205) and the PHF-1 tau epitope sites (serine 396 and serine 404), which are GSK-3 phosphorylation targets, and at the major paired helical filament (PHF) sites found in NFTs. […] Protein levels and activity of CDK5, another kinase mediating tau phosphorylation in AD (Flaherty et al., 2000), was analyzed following FG01 overexpression. […] N2a cells were transfected with FG01 or a control vector (Con). Equal cell lysate proteins were used for assaying in vitro CDK5 activity.

GSK-3α/β = assay: phospho-GSK-3α/β Western blot in rat PC12 cells; assay type: cell-based; conditions: FG01 overexpression
Description: Although the possibility that FG01 may modulate substrate specificity or accessibility to γ-secretase can not be excluded, it is equally possible that FG01 regulates other proteins/pathways functioning in APP processing and Aβ generation. […] Thus, the activities of GSK-3α/β were studied in the presence or absence of FG01 overexpression by examining levels of phospho-GSK-3α (Ser 21) and phospho-GSK-3β (Ser 9) (which represent inactivated forms of GSK-3) and by in vitro kinase assays.

GSK-3β = GSK-3β in vitro kinase activity after immunoprecipitation from N2aSwe cells; assay type: cell-based, mouse; conditions: in vitro kinase assay, FG01-overexpressing N2aSwe cells vs control
Description: The levels of the recombinant Notch (NotchΔE with Myc-tag) and the γ-secretase cleaved Notch fragment (NICD) were quantified by Western blotting using myc antibody and an antibody specific to processed Notch followed by densitometry. […] The results represent at least four independent experiments.
as §1

β-catenin = β-catenin level in human HEK293 cells (Western blot); assay type: cell-based; conditions: FG01 expression
Description: Expression of β-catenin, inactivated phospho-GSK-3β, total GSK-3, APP, β-CTF and FG01 in transfected human HEK293 cells were shown by Western blots.

APP = APP trafficking to cell surface (biotinylation) in N2a/swe cells; assay type: cell-based, mouse; conditions: FG01-transfected N2a/swe cells
Description: After treated with biotin or DMSO, membrane protein and total cell lysates were subjected to Western blots for APP.

PKA [1] = assay: PKA in vitro activity and CREB phosphorylation in FG01-transfected cells; assay type: cell-based, mouse
Description: After lysis, cell lysates were assayed for PKA activity, using a commercial kit and following the manufacturer's protocol (Upstate, catalog number 17-134). n=4.
as §1
Inhibition of GSK-3 activity via phosphorylation of serine 21 in GSK-3α and serine 9 in GSK-3β can be mediated by protein kinase A (PKA) (Fang et al., 2000), so whether FG01 regulates PKA activity was studied. […] Moreover, increased sAPPα secretion upon FG01 overexpression (FIG. 29A) is also likely due to PKA activation, because PKA can stimulate budding of APP-containing vesicles from the Trans-Golgi Network (TGN) and facilitates sAPPα generation (Xu et al., 1996).

PKA [2] = assay: PKA inhibitor H89 treatment of FG01-transfected N2aSwe cells; assay type: cell-based, mouse; conditions: FG01-transfected cells treated with H89
Description: After 48 hr incubation, cell media were changed to Opti-MEM (Invitrogen) containing DMSO or a PKA activity inhibitor H89 (2 μM) and cells were incubated for additional 4 hrs. The cell media were used for Aβ immunoprecipitation-Western blotting and cell lysates were subjected to Western blotting for p-CREB (substrate for PKA) and p-GSK3β. As shown, inhibiting PKA activity with H89 prevented serine phosphorylation of CREB and GSK3β by FG01.
N2aSwe cells were transfected with control vector or FG01 and then equally split. Four hours before collection, cells were treated with the GSK-3 inhibitor lithium chloride (5 mM) or sodium chloride (5 mM, as control). Alternatively, cells were treated with a PKA inhibitor H89 at 10 μM or with DMSO for control.

[3] = FG01 overexpression in N2aSwe cells
[4] = human tau T40 cotransfected with FG01

B1: FG01: 141 amino acid transmembrane protein encoded by mouse retrogene fg01 (SEQ ID NO:2); expressed from transfected vector or transgene (protein)
chain: MQSQQRNIGYFNHLKADSRNITYSMTFSTKSSNQNFIIFLNEVQAAIIGHERCDLLPVLNELHPDALPDGRIWLFGLNPYFFQHNSLCMRGTPKRIGLQGCAQVGFLVLFVMPLLIPSVTAELPGSSETTTLAHLAGATGP
modifications: Myc and His6 tags; homo sapien
notes: expressed from transfected vector or transgene
**Q.** Which “increase of cAMP levels” value (cAMP levels) does the source give for B1 here?
**A.** 75%

**Q.** What about the “Aβ production in the presence of lithium” value (Aβ generation; FG01-transfected N2aSwe cells, 5 mM LiCl 4 hrs) of the same molecule?
**A.** could not further reduce

**Q.** And the “levels of extracellular and intracellular Aβ” value (Aβ generation; [3])?
**A.** dramatically reduced

**Q.** And the “levels of total APP” value (Aβ generation; [3])?
**A.** not affected

**Q.** And the sAPPα level (Aβ generation; [3])?
**A.** stimulated; also recorded: greatly increased

**Q.** What about the βCTF level (Aβ generation; [3]) of the same molecule?
**A.** greatly accumulated; also recorded: greatly increased

**Q.** What about the “levels of secreted and intracellular Aβ, reduction” value (Aβ generation; His6-tagged FG01 overexpressed in N2aSwe cells vs control, Aβ40 and 42 equally reduced) of the same molecule?
**A.** more than 50%

**Q.** And the “Aβ levels in LiCl-pretreated cells” value (Aβ generation; N2a/swe cells pretreated with 5 mM LiCl for 24 hrs before FG01 transfection)?
**A.** did not further decrease

**Q.** What about the total tau levels (tau; [4]) of the same molecule?
**A.** without affecting

**Q.** What about the unphosphorylated tau levels (tau; [4]) of the same molecule?
**A.** increased

**Q.** And the “tau phosphorylation at GSK-3 target sites” value (tau; human tau T40 cotransfected with FG01 in N2aSwe cells)?
**A.** significantly decreased

**Q.** What about the “decrease of tau phosphorylation at Thr205 and PHF-1 epitope (Ser396, Ser404)” value (tau; human tau T40 cotransfected with FG01 in N2aSwe cells, densitometry) of the same molecule?
**A.** ~60%

**Q.** What about the “phospho-GSK-3α (Ser21) and phospho-GSK-3β (Ser9) levels” value (GSK-3α/β) of the same molecule?
**A.** more highly phosphorylated

**Q.** What about the “decrease in GSK-3β activity” value (GSK-3β) of the same molecule?
**A.** ~30% and 40%

**Q.** What about the “level of β-catenin” value (β-catenin) of the same molecule?
**A.** increases

**Q.** What about the “APP trafficking to cell surface” value (APP) of the same molecule?
**A.** stimulates

**Q.** What about the PKA activity (PKA [1]; FG01-transfected N2a/Swe cells vs control) of the same molecule?
**A.** significantly increase; also recorded: significantly more PKA activity

**Q.** What about the “phosphorylation of CREB (PKA substrate)” value (PKA [1]; FG01 overexpression) of the same molecule?
**A.** increased

**Q.** What about the “inhibition of Aβ generation when PKA suppressed by H89” value (PKA [2]) of the same molecule?
**A.** failed to inhibit

**Q.** What about the “inhibition of GSK-3 activity when PKA suppressed by H89” value (PKA [2]) of the same molecule?
**A.** failed to inhibit
